For three sequences, Kd results are on record in paper PMC9505737.

Data set [1] concerns Immunoglobulin E (IgE), human myeloma (human). In words: NECEEM (CE-LIF). The note with it: 25 nM DNA and 25 nM IgE, 10 mM Tris-HCl pH 9.0, no added salt in CE-LIF/NECEEM, temperature not stated.
Data set [2] shares this test system. In words: cited. To be noted: 10 mM Tris-HCl pH 9.0, no added salt in CE-LIF/NECEEM; temperature not stated; cited from earlier work.

With “GACTACCCGGGTATCTAATCCGCGTATGGTCATGGATGTGCATACACCCCGCCTATCAGAACTGCTGCCGCCCGTAGG [S1]”, the Kd in data set [1] came to 0.00083 µM.
For the sequence “GACTACCCGGGTATCTAATCCGACCATTTTTCGTCTCCTTTGTACGAGCAGTGTGCTCGACCTGCCGCCCGTAGG [S2]”, the Kd in data set [1] (alternative from both peaks, not adopted) worked out at 0.0346 µM; in data set [1] (alternative from sharp peak, not adopted) it was 0.0284 µM; in data set [1] (from broad peak (value adopted by authors)) it was 0.00155 µM.
For the sequence “GACTACCCGGGTATCTAATCCTGAAACATAGCATATTTACTTATGTCGCCTTGCCGGTTCTGCTGCCGCCCGTAGG [FITC-IgE-Apt (published IgE aptamer)]”, the Kd in data set [2] is 0.023 µM.
